Test results as given in US7893197B2, “Relaxin-3 chimeric polypeptides and their preparation and use” (Janssen Pharmaceutica N.V., priority 2005, dated 2011).
Values belong to the molecule of their own block, whether it stands above or below them. Ends that are not written are not given here.

Legend:
[1] = biological target: T1, GPCR142 (Homo sapiens, UniProt Q8TDU9, L329S); test: Inhibition of forskolin stimulated β-galactosidase expression in SK-N-MC/β-gal cells; type: cell-based; conditions: for EC50 to activate GPCR142: inhibition of 5 μM forskolin stimulated β-galactosidase expression, mean ± SEM, n = 3
T1 construct: expressed in transfected cells
Description: (§8) Different chimeric polypeptides at various concentrations were added to SK-N-MC/β-gal cells expressing human GPCR135 (FIG. 4A) or GPCR142 (FIG. 4B) to inhibit forskolin stimulated β-galactosidase expression. […] In parallel, chimeric polypeptides at various concentrations were added to SK-N-MC/β-gal cells expressing human LGR7 (FIG. 4C) and LGR8 (FIG. 4D) to stimulate β-galactosidase expression. Relaxin-3 and INSL3 were used as positive controls for LGR7 and LGR8, respectively. Intracellular β-galactosidase activity was measured by a colorimetric assay using CRGP as the substrate and reading the absorbance at wavelength of 570 nm. Data represent mean±SEM (n=3).

[2] = biological target: T2, GPCR135 (Homo sapiens, UniProt Q9NSD7); test: as above; type: cell-based; conditions: for EC50 to activate GPCR135: inhibition of 5 μM forskolin stimulated β-galactosidase expression, mean ± SEM, n = 3
T2 construct: expressed in transfected cells
T2 sequence (Q9NSD7 1-469): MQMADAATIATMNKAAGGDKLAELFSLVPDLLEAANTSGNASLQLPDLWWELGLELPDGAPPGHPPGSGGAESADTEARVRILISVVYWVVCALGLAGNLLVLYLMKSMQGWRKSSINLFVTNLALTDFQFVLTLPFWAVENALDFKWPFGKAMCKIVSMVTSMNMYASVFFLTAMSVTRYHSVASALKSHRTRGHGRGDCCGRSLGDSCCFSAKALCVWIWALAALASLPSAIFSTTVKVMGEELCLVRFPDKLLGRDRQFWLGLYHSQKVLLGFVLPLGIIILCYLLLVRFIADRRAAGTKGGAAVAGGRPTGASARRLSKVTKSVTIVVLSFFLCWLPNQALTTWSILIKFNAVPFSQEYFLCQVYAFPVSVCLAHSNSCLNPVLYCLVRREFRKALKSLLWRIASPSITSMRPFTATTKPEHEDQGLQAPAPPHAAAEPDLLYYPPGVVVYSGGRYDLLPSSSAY
Description: as §8

[3] = biological target: T3, LGR7 (Homo sapiens, UniProt Q9HBX9); test: Radioligand competition binding, [125I]-relaxin-3, live transfected COS-7 cells; conditions: [125I]-relaxin-3 100 pM; mean ± SEM, n = 3
T3 construct: Human LGR7 cDNA containing the complete coding region was PCR amplified; expressed in transfected cells
T3 sequence (Q9HBX9 1-757): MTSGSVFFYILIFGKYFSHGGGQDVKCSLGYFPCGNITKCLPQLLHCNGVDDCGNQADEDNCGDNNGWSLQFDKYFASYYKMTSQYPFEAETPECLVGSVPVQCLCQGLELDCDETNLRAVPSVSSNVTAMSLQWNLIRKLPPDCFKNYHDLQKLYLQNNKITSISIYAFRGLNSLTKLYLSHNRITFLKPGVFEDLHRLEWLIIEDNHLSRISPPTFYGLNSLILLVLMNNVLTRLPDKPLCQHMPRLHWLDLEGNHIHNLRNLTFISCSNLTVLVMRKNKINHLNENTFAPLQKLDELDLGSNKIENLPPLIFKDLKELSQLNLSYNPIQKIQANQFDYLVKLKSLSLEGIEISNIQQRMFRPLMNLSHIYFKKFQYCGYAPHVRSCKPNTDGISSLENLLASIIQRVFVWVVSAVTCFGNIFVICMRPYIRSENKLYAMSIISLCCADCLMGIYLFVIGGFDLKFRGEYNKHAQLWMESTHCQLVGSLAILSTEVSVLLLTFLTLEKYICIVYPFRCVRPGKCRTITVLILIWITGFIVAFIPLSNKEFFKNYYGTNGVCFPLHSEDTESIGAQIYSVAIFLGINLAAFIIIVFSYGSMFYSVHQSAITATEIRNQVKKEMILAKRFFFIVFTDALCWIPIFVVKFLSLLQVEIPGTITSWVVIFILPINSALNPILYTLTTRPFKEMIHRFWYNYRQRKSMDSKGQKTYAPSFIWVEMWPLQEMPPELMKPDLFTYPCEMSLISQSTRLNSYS
Description: For GPCR135, GPCR142, and LGR7, [^125I]-relaxin-3 was used as the radioligand at a final concentration of 100 pM. Different unlabeled peptides were used in the binding assay as the competitors. […] Different unlabeled peptides including relaxin-3 chimeras at various concentrations were added to the binding assay as the competitors. Data represent mean±SEM (n=3).
Radioligand binding assays for LGR7 and LGR8 were performed using live COS-7 cells transiently transfected with LGR7 or LGR8 expression plasmids in 15-cm culture dishes using LipofectAmine (Invitrogen). Two days after transfection, the transfected cells were detached from the 15-cm culture dished using phosphate buffered saline (PBS) plus 10 mM EDTA, seeded into 96-well opaque poly-D-lysine coated culture plates and used for radioligand binding assays. For LGR7, [^125I]-relaxin-3 was used as the tracer. […] [^125I]-labeled tracer was added in binding reactions at a final concentration of 100 pM in binding buffer containing DMEM plus 50 mM HEPES and 1% bovine serum albumin. Unlabeled relaxin-3 and relaxin-3 chimeric polypeptides were added at various concentrations to the binding assays as the competitors, as indicated (FIG. 3). The binding mixtures were incubated at room temperature for 1 hour. The unbound radioligand was removed by aspiration of the binding buffer. The cells were washed with PBS. The bound radioligand was counted in a scintillation counter (TopCount/NTX). The results were analyzed using Prism 3.0 program (Graphpad, San Diego, Calif.). The IC50 values represent the ligand concentrations that inhibit 50% of the maximum specific binding.

[4] = biological target: T4, LGR8 (Homo sapiens, UniProt Q8WXD0); test: Stimulation of β-galactosidase expression in SK-N-MC/β-gal cells; type: cell-based
T4 construct: Human LGR8 cDNA containing the complete coding region was PCR amplified; expressed in transfected cells
Description: (§1) FIGS. 1A-1D show the activation of GPCR135 and GPCR142 by relaxin-3 B-chain, but not of LGR7 or LGR8. In FIG. 1A, SK-N-MC/β-gal cells expressing human GPCR135 were stimulated with relaxin-3, relaxin-3 B-chain, porcine relaxin, or INSL3 at various concentrations to inhibit the forskolin stimulated β-galactosidase expression. Forskolin was added to cells at a final concentration of 5 μM to stimulate the β-galactosidase expression. FIG. 1B depicts results for SK-N-MC/β-gal cells expressing human GPCR142 stimulated as in FIG. 1A. In FIG. 1C, SK-N-MC/β-gal cells expressing human LGR7 were stimulated with relaxin-3, relaxin-3 B-chain, porcine relaxin, and INSL3 at various concentrations to induce the β-galactosidase expression. The intracellular β-galactosidase activities were measured by a colorimetric assay using CRGP as the substrate and reading the absorbance at a wavelength of 570 nm. For FIG. 1D, SK-N-MC/β-gal cells expressing human LGR8 were stimulated as in FIG. 1C.
(§2) FIGS. 4A-4D illustrate the evaluation of the agonist activity of relaxin-3 chimeric polypeptides in biofunctional assays. Different chimeric polypeptides at various concentrations were added to SK-N-MC/β-gal cells expressing human GPCR135 (FIG. 4A) or GPCR142 (FIG. 4B) to inhibit forskolin stimulated β-galactosidase expression. Human relaxin-3 was used as the positive control. In parallel, chimeric polypeptides at various concentrations were added to SK-N-MC/β-gal cells expressing human LGR7 (FIG. 4C) and LGR8 (FIG. 4D) to stimulate β-galactosidase expression. Relaxin-3 and INSL3 were used as positive controls for LGR7 and LGR8, respectively. Intracellular β-galactosidase activity was measured by a colorimetric assay using CRGP as the substrate and reading the absorbance at wavelength of 570 nm. Data represent mean±SEM (n=3).
(§3) It has been shown that synthetic human relaxin-3 B-chain alone, but not A-chain, is an agonist for both GPCR135 and GPCR142 (Liu et al., 2003, Journal of Biological Chemistry, 278:50754-50764 and Liu et al., 2003, Journal of Biological Chemistry, 278:50765-50770). Those studies were repeated herein in SK-N-MC/β-gal cells, which harbor a β-galactosidase gene under the control of a cAMP responsive element (CRE) (Liu et al., 2001, Molecular Pharmacology, 59:420-426). In such SK-N-MC/β-gal cells, an increase in intracellular cAMP concentration leads to increased β-galactosidase gene expression, the activity of which is measured using Chlorophenol Red-β-D-Galactopyranoside (CPRG) as the substrate.
(§4) The inventive chimeric polypeptides were each independently tested for their ability to activate either GPCR135, GPCR142, LGR7, or LGR8, respectively, in separate pools of SK-N-MC/β-gal cells (see supra), each pool stably expressing one of the respective receptors, as indicated (FIG. 4).
(§5) Cells were seeded in 96-well tissue culture plate at a density of 30,000 cells/well in MEM plus 10% fetal serum, sodium pyruvate, penicillin, streptomycin, and G418 (400 mg/L). For cells expressing GPCR135 or GPCR142, forskolin was added to cells at a final concentration of 5 μM to stimulate intracellular cAMP accumulation. Different concentrations of each of the inventive polypeptides were then added to the cells to inhibit the forskolin induced cAMP accumulation. For cells expressing LGR7 or LGR8, intracellular cAMP was stimulated with each of the inventive chimeric polypeptides at various concentrations.
(§6) For all cells, after adding the chimeric polypeptides, cells were incubated for 6 additional hours in 37° C. incubator. The media was then aspirated and the β-galactosidase activities measured as previously described (Liu et al., 2001, Molecular Pharmacology, 59:420-426). The results were analyzed by Prism 3.0 software. […]

[5] = biological target: T3, LGR7; test: Binding of radioligands to COS-7 cells transfected with LGR7; conditions: radioligand 100 pM
Description: (§7) FIGS. 5A-5D illustrate a comparative analysis of the binding specificities of [^125I]-relaxin-3 and [^125I]-R3/I5 for GPCR135 and LGR7. COS-7 cells in 6-well culture dishes were transfected with human GPCR135 and LGR7, respectively. Mock transfected COS-7 cells were used as the negative controls. [^125I]-relaxin-3 (FIG. 5A) or [^125I]-R3/I5 (FIG. 5B) was added to cells at a final concentration of 100 pM either in the absence or presence of 1 uM of unlabeled relaxin-3 to determine total binding and non-specific binding, respectively. FIG. 5C depicts an autoradiogram of [^125]-relaxin-3 binding in rat brain sagittal section. FIG. 5D depicts an autoradiogram of non-specific binding of [^125]-relaxin-3 as determined in the presence of 100 nM of unlabeled relaxin-3. FIG. 5E depicts an autoradiogram of [^125]-R3/I5 binding in rat brain sagittal section. […] binding of [^125]-R3/I5 as determined in the presence of 100 nM of unlabeled relaxin-3.

[6] = biological target: T2, GPCR135; test: Binding of radioligands to COS-7 cells transfected with GPCR135; conditions: radioligand 100 pM
Description: as §7

[7] = biological target: T3, LGR7; test: Stimulation of β-galactosidase expression in SK-N-MC/β-gal cells; type: cell-based; conditions: ligand stimulated β-galactosidase expression; mean ± SEM, n = 3; read-out: EC50 to activate LGR7
Description: as §1, §2, §3, §4, §5, §6

T1 sequence (Q8TDU9 whole entry L329S): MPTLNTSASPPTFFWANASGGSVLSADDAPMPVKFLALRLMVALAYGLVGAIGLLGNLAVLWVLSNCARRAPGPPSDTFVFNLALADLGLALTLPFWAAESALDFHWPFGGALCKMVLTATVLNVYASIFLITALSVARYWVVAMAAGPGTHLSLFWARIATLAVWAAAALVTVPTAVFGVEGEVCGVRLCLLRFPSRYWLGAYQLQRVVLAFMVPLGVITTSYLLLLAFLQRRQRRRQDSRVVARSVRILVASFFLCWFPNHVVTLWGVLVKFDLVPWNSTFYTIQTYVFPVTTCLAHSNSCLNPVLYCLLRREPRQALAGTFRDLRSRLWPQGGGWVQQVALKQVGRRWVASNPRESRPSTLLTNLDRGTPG
T4 sequence (Q8WXD0 whole entry): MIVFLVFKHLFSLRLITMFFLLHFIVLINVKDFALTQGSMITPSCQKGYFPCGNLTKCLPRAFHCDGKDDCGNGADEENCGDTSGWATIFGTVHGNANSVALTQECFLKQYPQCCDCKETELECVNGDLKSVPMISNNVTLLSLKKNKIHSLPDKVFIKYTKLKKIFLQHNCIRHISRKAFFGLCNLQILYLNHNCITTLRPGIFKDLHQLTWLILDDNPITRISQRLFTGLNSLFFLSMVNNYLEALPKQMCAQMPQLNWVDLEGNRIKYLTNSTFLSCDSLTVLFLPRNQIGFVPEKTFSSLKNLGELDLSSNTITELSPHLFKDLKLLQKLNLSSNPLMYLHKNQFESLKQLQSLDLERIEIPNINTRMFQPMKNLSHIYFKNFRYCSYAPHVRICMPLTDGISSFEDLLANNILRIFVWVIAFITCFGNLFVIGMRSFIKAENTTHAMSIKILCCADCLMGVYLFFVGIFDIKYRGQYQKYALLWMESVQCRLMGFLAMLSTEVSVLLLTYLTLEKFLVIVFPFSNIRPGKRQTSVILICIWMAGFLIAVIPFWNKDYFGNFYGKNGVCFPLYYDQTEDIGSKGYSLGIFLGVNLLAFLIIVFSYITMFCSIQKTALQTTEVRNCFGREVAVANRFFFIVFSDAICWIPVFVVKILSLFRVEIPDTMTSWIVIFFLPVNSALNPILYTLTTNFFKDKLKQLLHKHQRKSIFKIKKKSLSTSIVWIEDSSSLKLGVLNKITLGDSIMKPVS

- EC50 ([1]; read-out: EC50 to activate GPCR142): 125 nM
- EC50 ([2]; read-out: EC50 to activate GPCR135): 88 nM
Molecule: CC[C@H](C)[C@H](NC(=O)[C@H](Cc1ccccc1)NC(=O)[C@H](CCC(=O)O)NC(=O)[C@H](CCCNC(=N)N)NC(=O)CNC(=O)[C@H](CS)NC(=O)[C@H](CC(C)C)NC(=O)[C@H](CCCNC(=N)N)NC(=O)[C@@H](NC(=O)CNC(=O)[C@H](Cc1ccc(O)cc1)NC(=O)[C@@H]1CCCN1C(=O)[C@H](C)NC(=O)[C@H](C)NC(=O)[C@@H](N)CCCNC(=N)N)C(C)C)C(=O)N[C@@H](CCCNC(=N)N)C(=O)N[C@@H](C)C(=O)N[C@H](C(=O)N[C@H](C(=O)N[C@@H](Cc1ccccc1)C(=O)N[C@H](C(=O)N[C@@H](CS)C(=O)NCC(=O)NCC(=O)N[C@@H](CO)C(=O)N[C@@H](CCCNC(=N)N)C(=O)N[C@@H](Cc1c[nH]c2ccccc12)C(=O)O)[C@@H](C)O)[C@@H](C)CC)C(C)C [relaxin-3 B-chain, reference compound]

Molecule: R3/I3: chimeric polypeptide: human relaxin-3 B-chain and INSL3 A-chain; mature polypeptide SEQ ID NO:21 (RAAPYGVRLCGREFIRAVIFTCGGSRWNPARYCCLSGCTQQDLLTLC; Human Relaxin-3/Insulin-like 3 chimeric mature polypeptide)
- IC50 for binding LGR7 [3]: low nanomolar range
- EC50 to activate GPCR142 [1]: low nanomolar range
- EC50 to activate GPCR135 [2]: low nanomolar range

Molecule: R3/R1: chimeric polypeptide: human relaxin-3 B-chain and relaxin-1 A-chain; mature polypeptide SEQ ID NO:19 (RAAPYGVRLCGREFIRAVIFTCGGSRWPYVALFEKCCLIGCTKRSLAKYC; Human Relaxin-3/Relaxin-1 chimeric mature polypeptide)
- IC50 for binding LGR7 [3]: low nanomolar range
- EC50 to activate GPCR142 [1]: low nanomolar range
- activation of LGR8, in words ([4]; highest concentration tested 1 μM): marginal activity at the highest concentration tested (1 μM)
- EC50 to activate GPCR135 [2]: low nanomolar range

Molecule: R3/R2: chimeric polypeptide: human relaxin-3 B-chain and relaxin-2 A-chain; mature polypeptide SEQ ID NO:20 (RAAPYGVRLCGREFIRAVIFTCGGSRWQLYSALANKCCHVGCTKRSLARFC; Human Relaxin-3/Relaixin-2 chimeric mature polypeptide)
- IC50 for binding LGR7 [3]: low nanomolar range
- EC50 to activate GPCR142 [1]: low nanomolar range
- EC50 to activate GPCR135 [2]: low nanomolar range

Molecule: [^125I]-relaxin-3: radioiodinated human relaxin-3 used as tracer (RAAPYGVRLCGREFIRAVIFTCGGSRWDVLAGLSSSCCKWGCSKSEISSLC; ends and bridges not checked; also: radioiodinated ([125I]), site not given here) [reference compound]
- binding to LGR7, in words [5]: did
- binding to GPCR135 expressing cells, in words [6]: high affinity

- EC50 [7]: 0.25 nM
- EC50 ([4]; ligand stimulated β-galactosidase expression, mean ± SEM, n = 3, read-out: EC50 to activate LGR8): 1.5 nM
B1: porcine relaxin: porcine relaxin, reference ligand for LGR7 and LGR8 (protein)
chain: QSTNDFIKACGRELVRLWVEICGSVSWGRTALSLEEPQLETGPPAETMPSSITKDAEILKMMLEFVPNLPQELKATLSERQPSLRELQQSASKDSNLNFEEFKKIILNRQNEAEDKSLLELKNLGLDKHSRKKRLFRMTLSEKCCQVGCIRKDIARLC
